Data as given in publication PMC7409301, “Natural Killer Cell Activation Receptor NKp30 Oligomerization Depends on Its N-Glycosylation” (Cancers, 2020).
Several values for one entry are separate records, joined by “and”; a condition that tells them apart may be missing. Identical values can stand only once.

What was measured:
[1] = target: NKp30_Stalk, uniform simple N-glycans (expressed in HEK293S GnTI^−) (human) (UniProt O14931); test: SPR; NKp30_Stalk monomer; details: domain or fragment
[2] = target: NKp30_LBD (Ligand Binding Domain), glycosylation state not told in the text for the experiment (human) (UniProt O14931); test: AUC; NKp30_LBD at high concentration, 20 mg/mL, 50,000 rpm, 3 mm centerpiece, interference optics, nonideal c(s) model
[3] = target: B7-H6 C212S extracellular portion, wild-type N-glycosylation (expressed in HEK293T) (UniProt Q68D85); test: ITC; NKp30_Stalk monomer; details: domain or fragment
[4] = target: B7-H6 C212S extracellular portion, wild-type N-glycosylation (expressed in HEK293T) (UniProt Q68D85); test: ITC; NKp30_Stalk monomer; details: domain or fragment; remark: listed apart in the source
[5] = target: B7-H6 C212S extracellular portion, uniform simple N-glycans (expressed in HEK293S GnTI^−) (UniProt Q68D85); test: SPR; NKp30_Stalk monomer; details: domain or fragment
[6] = target: B7-H6 C212S extracellular portion, uniform simple N-glycans (expressed in HEK293S GnTI^−) (UniProt Q68D85); test: SPR; NKp30_Stalk oligomer; details: domain or fragment
[7] = target: B7-H6 C212S extracellular portion, wild-type N-glycosylation (expressed in HEK293T) (UniProt Q68D85); test: ITC; NKp30_Stalk oligomer; details: domain or fragment
[8] = target: B7-H6 C212S extracellular portion, glycosylation state not told in the text for the experiment (UniProt Q68D85); test: SPR; as a7 but analyte is the oligomeric fraction of NKp30_Stalk; increase in affinity put down to the avidity of the oligomers
[9] = target: B7-H6 C212S extracellular portion, glycosylation state not told in the text for the experiment (UniProt Q68D85); test: SPR; Biacore T200; biotinylated B7-H6 on streptavidin sensor; analyte NKp30_LBD, deglycosylated NKp30_Stalk or the monomeric fraction of NKp30_Stalk, 1 nM to 16.3 μM, single cycle kinetics; 10 mM HEPES pH 7.5, 150 mM NaCl, 1 mg/mL dextran, 0.05% Tween-20; steady-state responses fitted with AB hetero-association model
[10] = target: B7-H6 C212S extracellular portion, uniform simple N-glycans (expressed in HEK293S GnTI^−) (UniProt Q68D85); test: SPR; details: domain or fragment
[11] = target: NKp30_Stalk, uniform simple N-glycans (expressed in HEK293S GnTI^−) (human) (UniProt O14931); test: SPR; NKp30_Stalk monomer; details: domain or fragment; remark: listed apart in the source
[12] = target: NKp30_Stalk, deglycosylated with endoglycosidase Endo F1 (human) (UniProt O14931); test: SPR; details: domain or fragment
[13] = target: NKp30_Stalk, wild-type N-glycosylation (expressed in HEK293T) (human) (UniProt O14931); test: SPR; NKp30_Stalk monomer; details: domain or fragment
[14] = target: NKp30_Stalk, uniform simple N-glycans (expressed in HEK293S GnTI^−) (human) (UniProt O14931); test: SPR; NKp30_Stalk oligomer; details: domain or fragment
[15] = target: NKp30_Stalk, wild-type N-glycosylation (expressed in HEK293T) (human) (UniProt O14931); test: SPR; NKp30_Stalk oligomer; details: domain or fragment
[16] = target: NKp30_Stalk, wild-type N-glycosylation (expressed in HEK293T) (human) (UniProt O14931); test: AUC; sedimentation velocity of glycosylated and deglycosylated NKp30_Stalk oligomers, 20 μM, 20 °C, 10 mM HEPES pH 7.5, 150 mM NaCl, 10 mM NaN3, 36,000 or 48,000 rpm
[17] = target: B7-H6 (Homo sapiens) (UniProt Q68D85); details: cited from earlier work
[18] = target: NKp30_Stalk, glycosylated, type of N-glycans not told in the text for the experiment (human) (UniProt O14931); test: AUC; sedimentation velocity of the monomeric fraction of glycosylated NKp30_Stalk, of B7-H6 and of their equimolar mixture, 20 μM, 20 °C, HEPES buffer
[19] = target: NKp30_Stalk, wild-type N-glycosylation (expressed in HEK293T) (human) (UniProt O14931); test: ITC; as a9 but the oligomeric fraction of NKp30_Stalk in the cell
[20] = target: NKp30_Stalk, wild-type N-glycosylation (expressed in HEK293T) (human) (UniProt O14931); test: AUC; sedimentation velocity of the oligomeric fraction of NKp30_Stalk (HEK293T) with ATTO488-labelled B7-H6, read at 280 nm (total) and 480 nm (B7-H6 only), 20 °C
[21] = sedimentation velocity AUC; details: glycan changed form; control: NKp30_Stalk from HEK293S GnTI− (uniform glycans)
[22] = target: T1, B7-H6 C212S extracellular portion, wild-type N-glycosylation (expressed in HEK293T) (UniProt Q68D85 25-245, C212S, complex wild-type N-glycans (HEK293T); biotinylated with EZ-Link NHS-Biotin for SPR); test: ITC
T1 sequence: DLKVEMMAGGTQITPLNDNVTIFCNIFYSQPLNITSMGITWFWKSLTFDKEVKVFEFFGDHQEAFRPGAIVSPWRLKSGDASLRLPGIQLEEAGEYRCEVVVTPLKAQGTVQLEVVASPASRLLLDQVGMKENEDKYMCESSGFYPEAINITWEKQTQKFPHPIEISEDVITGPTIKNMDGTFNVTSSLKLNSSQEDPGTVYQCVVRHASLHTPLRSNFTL

[23] = target: T2, B7-H6 C212S extracellular portion, uniform simple N-glycans (expressed in HEK293S GnTI^−) (UniProt Q68D85 25-245, C212S, uniform Asn-GlcNAc2Man5 N-glycans; biotinylated with EZ-Link NHS-Biotin for SPR; labelled with ATTO 488-NHS ester for the two-wavelength sedimentation analysis); test: SPR
T2 sequence: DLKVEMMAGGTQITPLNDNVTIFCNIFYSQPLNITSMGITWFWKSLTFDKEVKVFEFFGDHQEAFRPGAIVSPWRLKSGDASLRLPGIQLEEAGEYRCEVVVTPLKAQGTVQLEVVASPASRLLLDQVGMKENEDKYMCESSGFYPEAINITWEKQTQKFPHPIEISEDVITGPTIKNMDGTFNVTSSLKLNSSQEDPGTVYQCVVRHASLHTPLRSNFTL

B7-H6 C212S extracellular portion, deglycosylated with endoglycosidase Endo F1 (from UniProt Q68D85 25-245)
Kd [1]: 380 nM

NKp30_LBD (Ligand Binding Domain), glycosylation state not told in the text for the experiment (from UniProt O14931 19-130) (domain or fragment)
stoichiometry N [2]: 2

B7-H6 C212S extracellular portion, wild-type N-glycosylation (expressed in HEK293T) (from UniProt Q68D85 25-245)
Kd [1]: 370 nM

NKp30_Stalk, uniform simple N-glycans (expressed in HEK293S GnTI^−) (from UniProt O14931 19-135)
Kd [3]: 960 nM | Kd [4]: 970 nM | Kd [5]: 370 nM | Kd [6]: 70 nM | Kd [7]: 1000 nM

NKp30_Stalk, wild-type N-glycosylation (expressed in HEK293T) (from UniProt O14931 19-135)
Kd [4]: 590 nM | Kd [5]: 380 nM | Kd [6]: 90 nM | Kd [7]: 830 nM

NKp30_Stalk, glycosylated, type of N-glycans not told in the text for the experiment (from UniProt O14931 19-135) (domain or fragment)
fold stronger binding than NKp30 LBD [8]: 10 fold | fold stronger binding than the NKp30 Stalk monomeric fraction [8]: 4 fold | fold higher affinity than NKp30 LBD [9]: 2 fold

NKp30_Stalk, deglycosylated with endoglycosidase Endo F1 (from UniProt O14931 19-135)
Kd [10]: 350 nM

B7-H6 C212S extracellular portion, uniform simple N-glycans (expressed in HEK293S GnTI^−) (from UniProt Q68D85 25-245)
Kd [11]: 370 nM | Kd [12]: 350 nM | Kd [1]: 350 nM | Kd [13]: 380 nM | Kd [14]: 70 nM | Kd [15]: 90 nM

NKp30_Stalk, wild-type N-glycosylation (expressed in HEK293T) (from UniProt O14931 19-135) (domain or fragment)
stoichiometry N [16]: 8 units and 16 units

NKp30 (from UniProt O14931)
Kd [17]: 1000 nM

B1: B7-H6 C212S extracellular portion, glycosylation state not told in the text for the experiment (domain or fragment)
chain: DLKVEMMAGGTQITPLNDNVTIFCNIFYSQPLNITSMGITWFWKSLTFDKEVKVFEFFGDHQEAFRPGAIVSPWRLKSGDASLRLPGIQLEEAGEYRCEVVVTPLKAQGTVQLEVVASPASRLLLDQVGMKENEDKYMCESSGFYPEAINITWEKQTQKFPHPIEISEDVITGPTIKNMDGTFNVTSSLKLNSSQEDPGTVYQCVVRHASLHTPLRSNFTL
modifications: glycosylation state marked only in the figures; biotinylated with EZ-Link NHS-Biotin for SPR
stoichiometry N [18]: 1 | percent of NKp30 Stalk T oligomers accessible [19]: 60 to 70%

B2: B7-H6 C212S extracellular portion, uniform simple N-glycans (expressed in HEK293S GnTI^−) (domain or fragment)
chain: DLKVEMMAGGTQITPLNDNVTIFCNIFYSQPLNITSMGITWFWKSLTFDKEVKVFEFFGDHQEAFRPGAIVSPWRLKSGDASLRLPGIQLEEAGEYRCEVVVTPLKAQGTVQLEVVASPASRLLLDQVGMKENEDKYMCESSGFYPEAINITWEKQTQKFPHPIEISEDVITGPTIKNMDGTFNVTSSLKLNSSQEDPGTVYQCVVRHASLHTPLRSNFTL
modifications: uniform Asn-GlcNAc2Man5 N-glycans; biotinylated with EZ-Link NHS-Biotin for SPR; labelled with ATTO 488-NHS ester for the two-wavelength sedimentation analysis
percent of NKp30 binding sites occupied by B7-H6 in the oligomers [20]: 60% | stoichiometry N ([20]; scale: B7-H6 molecules per eight NKp30 molecules): 5

B3: NKp30: HEK293T wild-type glycosylation (protein)
parent chain: MAWMLLLILIMVHPGSCALWVSQPPEIRTLEGSSAFLPCSFNASQGRLAIGSVTWFRDEVVPGKEVRNGTPEFRGRLAPLASSRFLHDHQAELHIRDVRGHDASIYVCRVEVLGLGVGTGNGTRLVVEKEHPQLGAGTVLLLRAGFYAVSFLSVAVGSTVYYQGKCLTWKGPRRQLPAVVPAPLPPPCGSSAHLLPPVPGG
oligomerisation [21]: changes, one dominant species of ca 8 units and with secondary species of ca 16 units

B4: NKp30_LBD (Ligand Binding Domain), uniform simple N-glycans (expressed in HEK293S GnTI^−) (domain or fragment)
chain: LWVSQPPEIRTLEGSSAFLPCSFNASQGRLAIGSVTWFRDEVVPGKEVRNGTPEFRGRLAPLASSRFLHDHQAELHIRDVRGHDASIYVCRVEVLGLGVGTGNGTRLVVEKE
modifications: uniform Asn-GlcNAc2Man5 N-glycans; GlcNAc modelled at Asn42 in the crystal structure
Kd [22]: 890 nM | Kd [23]: 1010 nM

B5: NKp30_LBD (Ligand Binding Domain), deglycosylated with endoglycosidase Endo F1 (domain or fragment)
chain: LWVSQPPEIRTLEGSSAFLPCSFNASQGRLAIGSVTWFRDEVVPGKEVRNGTPEFRGRLAPLASSRFLHDHQAELHIRDVRGHDASIYVCRVEVLGLGVGTGNGTRLVVEKE
modifications: a single GlcNAc unit left at each N-glycosylation site after Endo F1
Kd [22]: 550 nM | Kd [23]: 690 nM

B6: NKp30_LBD (Ligand Binding Domain), wild-type N-glycosylation (expressed in HEK293T) (domain or fragment)
chain: LWVSQPPEIRTLEGSSAFLPCSFNASQGRLAIGSVTWFRDEVVPGKEVRNGTPEFRGRLAPLASSRFLHDHQAELHIRDVRGHDASIYVCRVEVLGLGVGTGNGTRLVVEKE
modifications: complex wild-type N-glycans (HEK293T)
Kd [22]: 770 nM | Kd [23]: 910 nM
